In patent US20260242478A1 (published 2026):
Where no end group is shown, it is not given here.

B1: Phage-1700 (peptide)
peptide: TCSAGAQWEWPACL
B2: Phage-1665 (peptide)
peptide: WCSEVFSYPWPACL
notes: tested as crude phage supernatant
B3: Phage-1663 (peptide)
peptide: SCAAVFSFNWPECF
notes: as for B2
B4: Phage-1712 (peptide)
peptide: IRCVGEGHDLVCIF
modifications: cysteine pairing not given here; also: displayed on phage as pIII fusion, pIII sequence, linker and fusion order not given here
notes: not shown: pIII coat protein of the bacteriophage to which the peptide is fused
B5: Phage-1672 (peptide)
peptide: SCAAGASYSWPLCF
notes: as for B2
B6: Phage-1702 (peptide)
peptide: SCSAGASYAWPMCI
B7: Phage-1670 (peptide)
peptide: SCAAGAHWSWPACL
notes: as for B2
B8: Phage-1709 (peptide)
peptide: PELRCVPFWMCSFN
modifications: cysteine pairing not given here; also: fused to phage pIII (clonal phage display)
notes: as for B4
B9: Phage-1695 (peptide)
peptide: TCAAGAVWQWPTCF
B10: Phage-1667 (peptide)
peptide: LCAAVFAYTWPMCF
notes: as for B2
B11: Phage-1703 (peptide)
peptide: DCWWDSPYHWRVCL
B12: Phage-1708 (peptide)
peptide: IAVLCQPNWMCAGF
modifications: cysteine pairing not given here; also: fused to phage pIII (clonal phage display)
notes: also called Peptide-180; not shown: pIII coat protein of the bacteriophage to which the peptide is fused
B13: Phage-1674 (peptide)
peptide: TCSAGAHYPWPMCL
notes: as for B2
B14: Phage-1664 (peptide)
peptide: TCSAGASYSWPYCM
notes: as for B2
B15: Phage-1698 (peptide)
peptide: GCAAGAEYNWPTCL
B16: Phage-1696 (peptide)
peptide: PCSAGATYAWPYCL
B17: Phage-1707 (peptide)
peptide: LMKWCTPRWMCAAE
modifications: cysteine pairing not given here; also: fused to phage pIII (clonal phage display)
notes: as for B4
B18: Phage-1691 (peptide)
peptide: TCSAGATYGWPACF
B19: Phage-1697 (peptide)
peptide: TCAAGAQLEWPWCF
B20: Phage-1701 (peptide)
peptide: WCSAVFSYQWPVCL
B21: Phage-1711 (peptide)
peptide: MEYCSFHRFTCVLW
modifications: cysteine pairing not given here; also: displayed on phage as pIII fusion, pIII sequence, linker and fusion order not given here
notes: as for B4
B22: Phage-1660 (peptide)
peptide: SCAAGAAYAWPWCL
B23: Phage-1699 (peptide)
peptide: TCAAGAAYTWPHCF
B24: Phage-1693 (peptide)
peptide: ECSAGAMWGWPACF
B25: Phage-1694 (peptide)
peptide: TCAAGATYDWPSCL
B26: Phage-1673 (peptide)
peptide: VCAAGAAYPWPACL
notes: as for B2
B27: Phage-1692 (peptide)
peptide: ICAAGAGWPWPWCL
B28: Phage-1669 (peptide)
peptide: TCSAGATYKWPTCL
notes: as for B2
B29: Phage-1661 (peptide)
peptide: MCTAGFSFNWPECL
notes: as for B2
B30: Phage-1710 (peptide)
peptide: SIPCIPRDWLCPIK
modifications: cysteine pairing not given here; also: displayed as fusion to phage pIII, linker and order of fusion not given here
notes: as for B4
B31: Phage-1662 (peptide)
peptide: LCDQFFHYNWPACL
notes: as for B2
B32: Phage-1668 (peptide)
peptide: PCAAGAHYVWPVCF
notes: as for B2
B33: Phage-1690 (peptide)
peptide: TCSAGATYKWPMCF
B34: Phage-1666 (peptide)
peptide: SCTAVFSYALSPCF
notes: as for B2
B35: Phage-1671 (peptide)
peptide: MCAAGAMYNWPLCL
notes: as for B2

What was measured:
[1] = target: T1, Anti-CD28 Fab (SEQ ID NOs: 696, 697); assay: phage binding ELISA on plate-captured anti-CD28 Fab pre-incubated with CD28 antigen (competitor: CD28), anti-M13 HRP detection
T1 construct: In the phage ELISA the Fab was biotinylated and captured on neutravidin coated plates
T1 sequence (VH, as listed by the source, chain 1 of 2): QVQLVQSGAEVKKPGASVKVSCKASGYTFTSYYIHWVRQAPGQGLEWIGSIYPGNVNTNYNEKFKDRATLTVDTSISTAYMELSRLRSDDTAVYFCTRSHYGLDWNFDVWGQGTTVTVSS
T1 sequence (VL, as listed by the source, chain 2 of 2): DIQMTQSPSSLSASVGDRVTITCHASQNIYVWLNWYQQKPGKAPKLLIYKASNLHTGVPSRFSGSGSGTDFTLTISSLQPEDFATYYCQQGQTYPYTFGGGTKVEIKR
Description: (§1) Clonal phage were harvested as crude supematants and screened via standard ELISAs. […] Prior to the addition of clonal phage, wells were incubated with blocking buffer and CD28 antigen or blocking buffer alone. Without washing or aspirating, clonal phage supematants were then added to the wells and incubated for a short time. Wells were then washed followed by detection of bound phage using a horse radish conjugated anti-M13 antibody.

[2] = target: T1, Anti-CD28 Fab (SEQ ID NOs: 696, 697); assay: phage binding ELISA; biotinylated anti-CD28 Fab on neutravidin plate, clonal phage supernatant, anti-M13 HRP detection;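 also: wells pretreated with blocking buffer, either plus or minus CD28 antigen, then given crude phage supernatant briefly without washing in between, then washed before anti-M13 HRP readout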
Description: as §1

[3] = target: T2, Anti-CD28 Fab (SEQ ID NOs: 696, 697); assay: phage binding ELISA on captured Fab; CD28 antigen as competitor
T2 construct: In the phage ELISA the Fab was biotinylated and captured on neutravidin coated plates
T2 sequence (VH, as listed by the source, chain 1 of 2): as the sequence (VH, as listed by the source, chain 1 of 2) above
T2 sequence (VL, as listed by the source, chain 2 of 2): as the sequence (VL, as listed by the source, chain 2 of 2) above
Description: as §1

[4] = target: T2, Anti-CD28 Fab (SEQ ID NOs: 696, 697); assay: phage binding ELISA; biotinylated Fab on neutravidin plate, anti-M13 HRP detection
Description: as §1

[5] = target: T3, Anti-PSMA Fab (SEQ ID NOs: 19, 20); assay: phage binding ELISA; biotinylated anti-PSMA Fab on neutravidin plate, wells pre-incubated with PSMA antigen as competitor, anti-M13-HRP detection
T3 construct: Used biotinylated and captured on neutravidin coated plates; also called 006 PSMA Fab
Description: (§2) Clonal phage were harvested as crude supernatants and screened via standard ELISAs. […] Prior to the addition of clonal phage. wells were incubated with blocking buffer and PSMA antigen or blocking buffer alone. Without washing or aspirating, clonal phage supernatants were then added to the wells and incubated for a short time. Wells were then washed followed by detection of bound phage using a horse radish conjugated anti-M13 antibody.

[6] = target: T3, Anti-PSMA Fab (SEQ ID NOs: 19, 20); assay: phage binding ELISA; biotinylated anti-PSMA Fab on neutravidin plate, clonal phage supernatant, anti-M13-HRP detection
Description: as §2

[7] = target: T4, Anti-CD28 Fab (SEQ ID NOs: 696, 697); assay: phage binding ELISA; biotinylated Fab on neutravidin plate, clonal phage supernatant, anti-M13 HRP detection
T4 construct: In the phage ELISA the Fab was biotinylated and captured on neutravidin coated plates
T4 sequence (VH, as listed by the source, chain 1 of 2): as the sequence (VH, as listed by the source, chain 1 of 2) above
T4 sequence (VL, as listed by the source, chain 2 of 2): as the sequence (VL, as listed by the source, chain 2 of 2) above
Description: Clonal phage were harvested as crude supematants and screened via standard ELISAs. […] Prior to the addition of clonal phage, wells were incubated with blocking buffer and CD28 antigen or blocking buffer alone. Without washing or aspirating, clonal phage supematants were then added to the wells and incubated for a short time. Wells were then washed followed by detection of bound phage using a horse radish conjugated anti-M13 antibody. Clonal phage of interest were then sent for sequence analysis.

[8] = target: T4, Anti-CD28 Fab (SEQ ID NOs: 696, 697); assay: phage binding ELISA on captured Fab; wells pre-incubated with CD28 antigen as competitor
Description: as §1

Row | Binder | Phage binding ELISA, Anti-CD28 Fab signal in the presence of CD28 [1] | Phage binding ELISA, Anti-CD28 Fab signal [2] | Anti-CD28 Fab signal in the presence of CD28 [3] | Anti-CD28 Fab (SEQ ID NOs: 696, 697) signal [4] | also measured
1 | B1 | 0.08 | 0.67 |  |  | 
2 | B2 |  |  | 0.06 | 0.99 | 
3 | B3 |  |  | 0.07 | 1.01 | 
4 | B4 |  |  |  |  | Anti-PSMA Fab signal in the presence of PSMA [5]: 0.072; Anti-PSMA Fab (SEQ ID NOs: 19, 20) signal [6]: 2.36
5 | B5 |  |  | 0.08 | 0.95 | 
6 | B6 | 0.06 | 0.59 |  |  | 
7 | B7 |  |  | 0.06 | 0.97 | 
8 | B8 |  |  |  |  | Anti-PSMA Fab signal in the presence of PSMA [5]: 0.064; Anti-PSMA Fab (SEQ ID NOs: 19, 20) signal [6]: 0.622
9 | B9 | 0.06 | 0.71 |  |  | 
10 | B10 |  |  | 0.07 | 0.98 | 
11 | B11 | 0.07 | 0.57 |  |  | 
12 | B12 |  |  |  |  | Anti-PSMA Fab signal in the presence of PSMA [5]: 0.077; Anti-PSMA Fab (SEQ ID NOs: 19, 20) signal [6]: 0.997
13 | B13 |  |  | 0.06 | 0.93 | 
14 | B14 |  |  | 0.07 | 1 | 
15 | B15 | 0.64 | 0.69 |  |  | 
16 | B16 | 0.09 | 0.71 |  |  | 
17 | B17 |  |  |  |  | Anti-PSMA Fab signal in the presence of PSMA [5]: 0.232; Anti-PSMA Fab (SEQ ID NOs: 19, 20) signal [6]: 1.04
18 | B18 | 0.07 | 0.76 |  |  | 

Row | Binder | Phage binding ELISA, Anti-CD28 Fab signal in the presence of CD28 [1] | Phage binding ELISA, Anti-CD28 Fab signal [2] | Anti-CD28 Fab signal in the presence of CD28 [3] | Anti-CD28 Fab (SEQ ID NOs: 696, 697) signal [4] | also measured
19 | B19 | 0.07 | 0.7 |  |  | 
20 | B20 | 0.06 | 0.61 |  |  | 
21 | B21 |  |  |  |  | Anti-PSMA Fab signal in the presence of PSMA [5]: 0.117; Anti-PSMA Fab (SEQ ID NOs: 19, 20) signal [6]: 1.88
22 | B22 |  |  |  |  | Anti-CD28 Fab (SEQ ID NOs: 696, 697) signal [7]: 1.05; Anti-CD28 Fab signal in the presence of CD28 [8]: 0.07
23 | B23 | 0.11 | 0.69 |  |  | 
24 | B24 | 0.09 | 0.73 |  |  | 
25 | B25 | 0.08 | 0.71 |  |  | 
26 | B26 |  |  | 0.07 | 0.93 | 
27 | B27 | 0.1 | 0.75 |  |  | 
28 | B28 |  |  | 0.07 | 0.97 | 
29 | B29 |  |  | 0.07 | 1.05 | 
30 | B30 |  |  |  |  | Anti-PSMA Fab signal in the presence of PSMA [5]: 0.096; Anti-PSMA Fab (SEQ ID NOs: 19, 20) signal [6]: 1.89
31 | B31 |  |  | 0.05 | 1.04 | 
32 | B32 |  |  | 0.06 | 0.97 | 
33 | B33 | 0.07 | 0.77 |  |  | 
34 | B34 |  |  | 0.05 | 0.99 | 
35 | B35 |  |  | 0.09 | 0.95 | 
